{
  "source": "patent US20250346885A1",
  "about": "“SYSTEMS AND METHODS FOR TARGETED CONTINUOUS GENOME MUTAGENESIS” (The Broad Institute, Inc., priority 2023, published 2025)",
  "molecules": {"B1": {"name": "UGI: uracil DNA glycosylase inhibitor fused to the HACE editor (protein, UniProt P14739 1-84, looked up)", "Uracil-DNA glycosylase …": "MTNLSDIIEKETGKQLVIQESILMLPEEVEEVIGNKPESDILVHTAYDESTDENVMLLTSDAPEYKPWALVIQDSNGENKIKML", "modifications": "fused to HACE editor"}, "B2": {"name": "Sgs1: helicase with short-range processivity (protein, UniProt P35187 1-1447, looked up)", "ATP-dependent helicase SGS1": "MVTKPSHNLRREHKWLKETATLQEDKDFVFQAIQKHIANKRPKTNSPPTTPSKDECGPGTTNFITSIPASGPTNTATKQHEVMQTLSNDTEWLSYTATSNQYADVPMVDIPASTSVVSNPRTPNGSKTHNFNTFRPHMASSLVENDSSRNLGSRNNNKSVIDNSSIGKQLENDIKLEVIRLQGSLIMALKEQSKLLLQKCSIIESTSLSEDAKRLQLSRDIRPQLSNMSIRIDSLEKEIIKAKKDGMSKDQSKGRSQVSSQDDNIISSILPSPLEYNTSSRNSNLTSTTATTVTKALAITGAKQNITNNTGKNSNNDSNNDDLIQVLDDEDDIDCDPPVILKEGAPHSPAFPHLHMTSEEQDELTRRRNMRSREPVNYRIPDRDDPFDYVMGKSLRDDYPDVEREEDELTMEAEDDAHSSYMTTRDEEKEENELLNQSDFDFVVNDDLDPTQDTDYHDNMDVSANIQESSQEGDTRSTITLSQNKNVQVILSSPTAQSVPSNGQNQIGVEHIDLLEDDLEKDAILDDSMSFSFGRQHMPMSHSDLELIDSEKENEDFEEDNNNNGIEYLSDSDLERFDEERENRTQVADIQELDNDLKIITERKLTGDNEHPPPSWSPKIKREKSSVSQKDEEDDFDDDFSLSDIVSKSNLSSKTNGPTYPWSDEVLYRLHEVFKLPGFRPNQLEAVNATLQGKDVFVLMPTGGGKSLCYQLPAVVKSGKTHGTTIVISPLISLMQDQVEHLLNKNIKASMFSSRGTAEQRRQTFNLFINGLLDLVYISPEMISASEQCKRAISRLYADGKLARIVVDEAHCVSNWGHDFRPDYKELKFFKREYPDIPMIALTATASEQVRMDIIHNLELKEPVFLKQSFNRTNLYYEVNKKTKNTIFEICDAVKSRFKNQTGIIYCHSKKSCEQTSAQMQRNGIKCAYYHAGMEPDERLSVQKAWQADEIQVICATVAFGMGIDKPDVRFVYHFTVPRTLEGYYQETGRAGRDGNYSYCITYFSFRDIRTMQTMIQKDKNLDRENKEKHLNKLQQVMAYCDNVTDCRRKLVLSYFNEDFDSKLCHKNCDNCRNSANVINEERDVTEPAKKIVKLVESIQNERVTIIYCQDVFKGSRSSKIVQANHDTLEEHGIGKSMQKSEIERIFFHLITIRVLQEYSIMNNSGFASSYVKVGPNAKKLLTGKMEIKMQFTISAPNSRPSTSSSFQANEDNIPVIAQKSTTIGGNVAANPPRFISAKEHLRSYTYGGSTMGSSHPITLKNTSDLRSTQELNNLRMTYERLRELSLNLGNRMVPPVGNFMPDSILKKMAAILPMNDSAFATLGTVEDKYRRRFKYFKATIADLSKKRSSEDHEKYDTILNDEFVNRAAASSNGIAQSTGTKSKFFGANLNEAKENEQIINQIRQSQLPKNTTSSKSGTRSISKSSKKSANGRRGFRNYRGHYRGRK"}},
  "key": {"double-stranded DNA": {"tested_on": "double-stranded DNA", "conditions": "average base pairs unwound in a single binding event; cited from earlier work"}, "HEK293FT cells": {"tested_on": "HEK293FT cells", "test": "CellTiter-Glo cell viability after transfection of HACE constructs", "type": "cell-based, human", "procedure": "The effects of different HACE constructs on cell viability were then quantified. To do so, the cell viability was quantified using a luciferase-based ATP-assay (CellTiter-Glo) across various helicase constructs both with and without deaminase along with a loci-targeting sgRNA and nCas9 (FIG. 11A).\nCell viability was measured using the CellTiter-Glo Luminescent Cell Viability Assay (Promega) following the manufacturer's protocols. Briefly, HEK293FT cells were seeded at a density of 10,000 cells per 100 μL per well in a 96-well plate in biological triplicates. The following day, cells were transfected with respective HACE plasmids according to the above protocol. Cell viability was measured 72 h after transfection. Luminescence readings were performed using a SpectraMax M5 (Molecular Devices) plate reader."}, "HEK3, TNF, and IL6 loci": {"tested_on": "HEK3, TNF, and IL6 loci", "test": "HACE editing rate and range with helicase and nickase variants (1000 bp window, local rate in 100 bp bins)", "type": "cell-based, human", "conditions": "nCas9 D10A versus nCas9 H840A", "procedure": "In one embodiment, HACE constructs were tested with different helicase enzymes.\nThe editing range of different HE constructs was then characterized. For each helicase, nickase, and loci combination, the respective HE, nCas9, and sgRNA combination was transfected into HEK293FT cells, genomic DNA was harvested after three days, and then a 1000 bp window was amplified by PCR for sequencing. The target-strand and non-target strand nickase had similar long range editing performance (FIG. 5C-D, FIG. 10B-C). […] Thus, the nCas9 binding and DNA-sgRNA duplex might obstruct the helicase loading on the non-nicked single-stranded DNA.\nIn another embodiment, the local average mutation rate was calculated in 100 bp bins for each genomic loci (FIG. 10D). […]\nFor long amplicon (˜2000 bp) sequencing, the targeted region was amplified using Phusion U Hot Start PCR master mix in a 20 μL reaction. […] The concentration of each sample was measured by Qubit (Thermo Fisher Scientific). […] Sequencing was performed on a NextSeq (Illumina) with paired-end reads (read1,100 bp; index1, 8 bp; index2, 8 bp; read2, 100 bp).\nTo calculate the mutation rate, it was filtered for base positions with a sequencing coverage of at least 10,000. […] The average G>A editing rate was calculated by extracting all positions where “G” was the reference base, then taking the average of the per base G>A editing rate. […]"}, "HEK3 locus": {"tested_on": "HEK3 locus", "test": "HACE editing assay at the HEK3 locus, amplicon sequencing", "type": "cell-based, human", "conditions": "HEK293FT cells, HEs with and without UGI fusion", "text": "An example HACE Editor (HE) protein was constructed by fusing a hyperactive mutant of activation-induced cytidine deaminase (AID*Δ) with a Geobacillus stearothermophilus PcrA helicase that was previously optimized for processivity (PcrA M6). […] After the nCas9 creates a nick, the HE may load at the nick, start unwinding the DNA, and generate random mutations in the process.\nSeparate plasmids expressing HE, nCas9, and a sgRNA targeting the HEK3 locus were transfected into HEK293FT cells. Cells were collected 72 hours after transfection, and editing rates were evaluated by amplicon sequencing. […] A strand bias with G>A substitutions occurring at a higher rate than C>T substitutions was detected, which likely reflects preferential repair of mismatches on the nicked strand. […]\nFor short amplicon (˜300 bp) sequencing for HEK293T and A375 cells, the target region was amplified from genomic DNA samples using Phusion U Hot Start PCR master mix (ThermoFisher Scientific, F562) in a 20 μL reaction. […] Amplicons were pooled and prepared for sequencing on a NextSeq (Illumina) with paired-end reads (read1, 160 bp; index1, 8 bp; index2, 8 bp; read2, 160 bp). Reads were demultiplexed and analyzed with appropriate pipelines. […]\nRaw fastq reads obtained from sequencing were quality trimmed using BBduk(1) (BBMap v38.93) with the options “qtrim=r1 trimq=28 maq=25”. […]"}},
  "data": [
    {"molecule": "BLM: human helicase; in b329, b331 and b335 the HE constructed with it", "values": [
      {"measurement": "processivity range", "setting": "double-stranded DNA", "value": "over 200 base pairs"},
      {"measurement": "cell viability (CellTiter-Glo)", "setting": "HEK293FT cells", "value": "did not result in a significant decrease in cell viability"},
      {"measurement": "preference of target and non-target strand nickase", "setting": "HEK3, TNF, and IL6 loci", "value": "prefer both nickase variants equally"}
    ]},
    {"molecule": "B1", "values": [
      {"measurement": "effect of UGI fusion on editing levels for AID", "setting": "HEK3 locus", "value": "significantly elevated the editing levels"}
    ]},
    {"molecule": "B2", "values": [
      {"measurement": "processivity range", "setting": "double-stranded DNA", "value": "about 100 base pairs"}
    ]}
  ]
}
